Consider 19 molecules from patent US10172953B2, “XTEN conjugate compositions and methods of making same” (Amunix Operating Inc., priority 2012, dated 2019).

Like-named read-outs stand apart in the source and are kept apart here. Numbered stars: 1 amine (or outer) side, 2 acyl side, 3 side chain; on linkers, the order of the positions; unused ones are H or OH. Square brackets hold non-standard residues; d marks the D form. Side chains are listed from the residue outwards. Ends that are not written are not given here. Peptide text beside a SMILES is read from it. * marks the point of attachment. Ethylenediamine = C(CN[*:2])N[*:1]; Hyp = O=C(O)[C@@H]1C[C@@H](O)CN1; Phg = N[C@H](C(=O)O)c1ccccc1; CO = O=C([*:1])[*:2]; Bn = c1ccc(C*)cc1

One may read the half-life as the time needed for the level to fall by half in the phase considered.

For series [1] the following is noted: cited from earlier work.
For series [2] the following is noted: cited from earlier work. This is another data set of the same source.
Series [3] is described as follows: Analytical size exclusion chromatography (apparent MW, hydrodynamic radius). In kind it is physicochemical. The conditions noted are these: for Apparent MW / RH (hydrodynamic radius): SEC; for Apparent Molecular Weight Factor: ratio of apparent molecular weight to calculated molecular weight. The method, then:
Size exclusion chromatography analyses were performed on fusion proteins containing various therapeutic proteins and unstructured recombinant proteins of increasing length. […] Chromatogram profiles were monitored using OD214 nm and OD280 nm.

Series [4] deals with human recombinant GLP-2 glucagon family receptor (human) (UniProt O95838). The series is described as follows: cell-based or functional assay.
Setting [5] is: unmodified peptide (GLP-1: biological half-life).
[6] abbreviates: unmodified peptide/protein, humans (oxyntomodulin: in human plasma; ghrelin: terminal half-life).
The mark [7] stands for this setting: unmodified peptide/protein, humans/patients.

UniProt O95838, sequence (O95838 whole entry): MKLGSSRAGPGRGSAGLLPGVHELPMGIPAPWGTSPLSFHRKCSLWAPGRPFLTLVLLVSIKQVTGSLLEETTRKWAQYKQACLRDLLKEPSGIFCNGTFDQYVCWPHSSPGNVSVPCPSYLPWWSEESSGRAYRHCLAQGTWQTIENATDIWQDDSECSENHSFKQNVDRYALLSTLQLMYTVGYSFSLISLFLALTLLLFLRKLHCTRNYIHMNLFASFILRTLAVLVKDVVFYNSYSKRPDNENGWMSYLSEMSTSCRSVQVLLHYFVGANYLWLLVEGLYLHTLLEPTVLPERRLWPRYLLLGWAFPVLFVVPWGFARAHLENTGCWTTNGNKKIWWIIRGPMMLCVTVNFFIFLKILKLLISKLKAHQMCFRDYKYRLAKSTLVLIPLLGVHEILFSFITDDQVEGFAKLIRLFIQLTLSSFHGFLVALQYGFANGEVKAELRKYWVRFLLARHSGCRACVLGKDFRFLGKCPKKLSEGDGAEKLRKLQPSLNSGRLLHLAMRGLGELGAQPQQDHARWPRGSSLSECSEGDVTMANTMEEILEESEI

On to CNP-22, for which the half-life in series [1] (unmodified peptide/protein (Fxa: plasma half-life)) is 2.6 min.

“ghrelin: human hormone GSSFLSPEHQRVQQRKESKKPPAKLQPR (SEQ ID NO: 557) (listed as Homo sapiens)”: the half-life in series [2] (human, in vivo) is 10 to 30 min.

Turning to “GLP-(7-37)OH: form of human glucagon like peptide-1 (HAEGTFTSDVSSTLEGQAALEFIAWLVKGRG; listed as Homo sapiens)”, in series [1] (setting [5]), the half-life is 3 to 5 min.

Take “metreleptin: the commercially available form of leptin [reference compound]”: in series [2] (setting [6]), the half-life is 8 to 30 min.

On to “GHRH: 44-amino acid peptide hormone (SEQ ID NO: 542)”, for which the half-life entry in series [1] (setting [5]) is recorded as “less than 15 minutes”.

With “α-MSH: 13-amino acid peptide N-Ac-SYSMGFRWGLPV (SEQ ID NO: 564) (not fully specified; printed as N-Ac-SYSMGFRWGLPV; ends and bridges not checked)”, the half-life result in series [1] (unmodified form, in words) is given as “mere seconds”.

On to “IL-7: human interleukin encoded by the IL7 gene (SEQ ID NO: 562)”, for which the half-life entry in series [2] (setting [7]) was “approximately 10 h”.

For relaxin, the half-life entry in series [2] (setting [6]) is “less than 10 min”.

Regarding AC616: fusion: XTEN AE864, GLP2-2G, in series [3], the “Apparent MW” value worked out at 1427 kDa, the “RH (hydrodynamic radius)” value is 10 nm and the “Apparent Molecular Weight Factor” value is given as 17.2.

Turning to enfuvirtide, the half-life in series [2] (setting [7]) was 228 min.

As for “POT4: synthetic cyclic peptide H-Ile-[Cys-Val-Val-Gln-Asp-Trp-Gly-His-His-Arg-Cys]-Thr-NH2, C3 complement inhibitor [reference compound]”, the “circulating in vivo half-life” value in series [1] (in vivo) is 480 min.

As to “C-peptide: human pancreatic protein, middle segment of proinsulin (SEQ ID NO: 556) (EAEDLQVGQVELGGGPGAGSLQPLALEGSLQ; listed as Homo sapiens)”, in series [2] (unmodified peptide, humans), the half-life result was “about 30 minutes”.

Regarding “oxyntomodulin: 37 amino acid peptide (SEQ ID NO: 552)”, in series [2] (human, in vivo), the half-life is around 12 min.

As to `NCCCC[C@@H]1NC(=O)[C@@H](Cc2c[nH]c3ccccc23)NC(=O)[C@H](c2ccccc2)NC(=O)[C@@H]2C[C@@H](OC(=O)NCCN)CN2C(=O)[C@H](Cc2ccccc2)NC(=O)[C@H](Cc2ccc(OCc3ccccc3)cc2)NC1=O` [Pasireotide, [(3S,6S,9S,12R,15S,18S,20R)-9-(4-aminobutyl)-3-benzyl-12-(1H-indol-3-ylmethyl)-2,5,8,11,14,17-hexaoxo-15-phenyl-6-[(4-phenylmethoxyphenyl)methyl]-1,4,7,10,13,16-hexazabicyclo[16.3.0]henicosan-20-yl] N-(2-aminoethyl)carbamate, reference compound] (cyclo([Hyp]([CO-Ethylenediamine])[Phg][dW]KY(Bn)F)), the half-life in series [2] (setting [7]) was 720 to 1020 min.

B1: AC404: fusion: XTEN AE864, FVII (protein)
chain: AVFVTQEEAHGVLHRRRRANAFLEELRPGSLERECKEEQCSFEEAREIFKDAERTKLFWISYSDGDQCASSPCQNGGSCKDQLQSYICFCLPAFEGRNCETHKDDQLICVNENGGCEQYCSDHTGTKRSCRCHEGYSLLADGVSCTPTVEYPCGKIPILEKRNASKPQGRIVGGKVCPKGECPWQVLLLVNGAQLCGGTLINTIWVVSAAHCFDKIKNWRNLIAVLGEHDLSEHDGDEQSRRVAQVIIPSTYVPGTTNHDIALLRLHQPVVLTDHVVPLCLPERTFSERTLAFVRFSLVSGWGQLLDRGATALELMVLNVPRLMTQDCLQQSRKVGDSPNITEYMFCAGYSDGSKDSCKGDSGGPHATHYRGTWYLTGIVSWGQGCATVGHFGVYTRVSQYIEWLQKLMRSEPRPGVLLRAPFPGSPGSPAGSPTSTEEGTSESATPESGPGTSTEPSEGSAPGSPAGSPTSTEEGTSTEPSEGSAPGTSTEPSEGSAPGTSESATPESGPGSEPATSGSETPGSEPATSGSETPGSPAGSPTSTEEGTSESATPESGPGTSTEPSEGSAPGTSTEPSEGSAPGSPAGSPTSTEEGTSTEPSEGSAPGTSTEPSEGSAPGTSESATPESGPGTSTEPSEGSAPGTSESATPESGPGSEPATSGSETPGTSTEPSEGSAPGTSTEPSEGSAPGTSESATPESGPGTSESATPESGPGSPAGSPTSTEEGTSESATPESGPGSEPATSGSETPGTSESATPESGPGTSTEPSEGSAPGTSTEPSEGSAPGTSTEPSEGSAPGTSTEPSEGSAPGTSTEPSEGSAPGTSTEPSEGSAPGSPAGSPTSTEEGTSTEPSEGSAPGTSESATPESGPGSEPATSGSETPGTSESATPESGPGSEPATSGSETPGTSESATPESGPGTSTEPSEGSAPGTSESATPESGPGSPAGSPTSTEEGSPAGSPTSTEEGSPAGSPTSTEEGTSESATPESGPGTSTEPSEGSAPGTSESATPESGPGSEPATSGSETPGTSESATPESGPGSEPATSGSETPGTSESATPESGPGTSTEPSEGSAPGSPAGSPTSTEEGTSESATPESGPGSEPATSGSETPGTSESATPESGPGSPAGSPTSTEEGSPAGSPTSTEEGTSTEPSEGSAPGTSESATPESGPGTSESATPESGPGTSESATPESGPGSEPATSGSETPGSEPATSGSETPGSPAGSPTSTEEGTSTEPSEGSAPGTSTEPSEGSAPGSEPATSGSETPGTSESATPESGPGTSTEPSEGSAPGSSS
Consider B1, for which, in series [3], the “Apparent MW” value is recorded as 1900 kDa, the “RH (hydrodynamic radius)” value came out at 10.1 nm and the “Apparent Molecular Weight Factor” value was 14.7.

B2: Glucagon-Y288: fusion protein of glucagon plus XTEN Y288 (protein)
chain: HSQGTFTSDYSKYLDSRRAQDFVQWLMNTGEGSGEGSEGEGSEGSGEGEGSEGSGEGEGGSEGSEGEGGSEGSEGEGGSEGSEGEGSGEGSEGEGGSEGSEGEGSGEGSEGEGSEGGSEGEGGSEGSEGEGSGEGSEGEGGEGGSEGEGSEGSGEGEGSGEGSEGEGSEGSGEGEGSGEGSEGEGSEGSGEGEGSEGSGEGEGGSEGSEGEGSEGSGEGEGGEGSGEGEGSGEGSEGEGGGEGSEGEGSGEGGEGEGSEGGSEGEGGSEGGEGEGSEGSGEGEGSEGGSEGEGSEGGSEGEGSEGSGEGEGSEGSGE
In the case of B2, in series [3], the “Apparent MW” value is 370 kDa, the “RH (hydrodynamic radius)” value is given as 7.0 nm and the “Apparent Molecular Weight Factor” value was 12.9.

B3: AC398: fusion: XTEN AE288, FVII (protein)
chain: AVFVTQEEAHGVLHRRRRANAFLEELRPGSLERECKEEQCSFEEAREIFKDAERTKLFWISYSDGDQCASSPCQNGGSCKDQLQSYICFCLPAFEGRNCETHKDDQLICVNENGGCEQYCSDHTGTKRSCRCHEGYSLLADGVSCTPTVEYPCGKIPILEKRNASKPQGRIVGGKVCPKGECPWQVLLLVNGAQLCGGTLINTIWVVSAAHCFDKIKNWRNLIAVLGEHDLSEHDGDEQSRRVAQVIIPSTYVPGTTNHDIALLRLHQPVVLTDHVVPLCLPERTFSERTLAFVRFSLVSGWGQLLDRGATALELMVLNVPRLMTQDCLQQSRKVGDSPNITEYMFCAGYSDGSKDSCKGDSGGPHATHYRGTWYLTGIVSWGQGCATVGHFGVYTRVSQYIEWLQKLMRSEPRPGVLLRAPFPGSPGTSESATPESGPGSEPATSGSETPGTSESATPESGPGSEPATSGSETPGTSESATPESGPGTSTEPSEGSAPGSPAGSPTSTEEGTSESATPESGPGSEPATSGSETPGTSESATPESGPGSPAGSPTSTEEGSPAGSPTSTEEGTSTEPSEGSAPGTSESATPESGPGTSESATPESGPGTSESATPESGPGSEPATSGSETPGSEPATSGSETPGSPAGSPTSTEEGTSTEPSEGSAPGTSTEPSEGSAPGSEPATSGSETPGTSESATPESGPGTSTEPSEGSAPGSSS
Regarding B3, in series [3], the “Apparent MW” value came out at 650 kDa, the “RH (hydrodynamic radius)” value was 8.2 nm and the “Apparent Molecular Weight Factor” value is on record as 8.5.

B4: Endostatin: 20-kDa C-terminal fragment derived from type XVIII collagen (SEQ ID NO: 565) (protein, listed as Homo sapiens)
chain: HSHRDFQPVLHLVALNSPLSGGMRGIRGADFQCFQQARAVGLAGTFRAFLSSRLQDLYSIVRRADRAAVPIVNLKDELLFPSWEALFSGSEGPLKPGARIFSFDGKDVLRHPTWPQKSVWHGSDPNGRRLTESYCETWRTEAPSATGQASSLLGGRLLGQSAASCHHAYIVLCIENSFMTASK
B4: in series [2] (setting [7]), the half-life was 780 min.

B5: conjugate GLP2-2G-XTEN (protein, part only; not given: added cysteine position, not shown: small tags and cut ends)
peptide, part: HGDGSFSDEMNTILDNLAARDFINWLIQTKITD
chain: GSPGSPAGSPTSTEEGTSESATPESGPGTSTEPSEGSAPGSPAGSPTSTEEGTSTEPSEGSAPGTSTEPSEGSAPGTSESATPESGPGSEPATSGSETPGSEPATSGSETPGSPAGSPTSTEEGTSESATPESGPGTSTEPSEGSAPGTSTEPSEGSAPGSPAGSPTSTEEGTSTEPSEGSAPGTSTEPSEGSAPGTSESATPESGPGTSTEPSEGSAPGTSESATPESGPGSEPATSGSETPGTSTEPSEGSAPGTSTEPSEGSAPGTSESATPESGPGTSESATPESGPGSPAGSPTSTEEGTSESATPESGPGSEPATSGSETPGTSESATPESGPGTSTEPSEGSAPGTSTEPSEGSAPGTSTEPSEGSAPGTSTEPSEGSAPGTSTEPSEGSAPGTSTEPSEGSAPGSPAGSPTSTEEGTSTEPSEGSAPGTSESATPESGPGSEPATSGSETPGTSESATPESGPGSEPATSGSETPGTSESATPESGPGTSTEPSEGSAPGTSESATPESGPGSPAGSPTSTEEGSPAGSPTSTEEGSPAGSPTSTEEGTSESATPESGPGTSTEPSEGSAPGTSESATPESGPGSEPATSGSETPGTSESATPESGPGSEPATSGSETPGTSESATPESGPGTSTEPSEGSAPGSPAGSPTSTEEGTSESATPESGPGSEPATSGSETPGTSESATPESGPGSPAGSPTSTEEGSPAGSPTSTEEGTSTEPSEGSAPGTSESATPESGPGTSESATPESGPGTSESATPESGPGSEPATSGSETPGSEPATSGSETPGSPAGSPTSTEEGTSTEPSEGSAPGTSTEPSEGSAPGSEPATSGSETPGTSESATPESGPGTSTEPSEGSAPGR
modifications: N-terminal alpha-amino group modified with sulfo-SMCC and linked to GLP2-Cys; added cysteine thiol linked through the sulfo-SMCC cross-linker (maleimide) to the N-terminal alpha-amino group of the XTEN chain
B5: the GPCR Ca2+ flux mobilization, EC50 in series [4] is 529 nM.
